Read-outs that look alike come from different tables or passages of the source.
Key:
Test in all cases: cell-based or functional assay
[1] = target: TSHR with Thr257 mutated to Ala, expressed in CHO cells (human) (UniProt P16473)
[2] = target: wild type TSHR (human TSH receptor) expressed in CHO cells (human) (UniProt P16473)
[3] = target: TSHR with Trp258 mutated to Ala, expressed in CHO cells (human) (UniProt P16473)
[4] = target: wild type TSHR (human TSH receptor) expressed in CHO cells (human) (UniProt P16473); remark: listed apart in the source
[5] = target: TSHR with Lys58 mutated to Ala expressed in CHO cells (human) (UniProt P16473)
[6] = target: TSHR with Glu178 mutated to Ala expressed in CHO cells (human) (UniProt P16473)
[7] = target: wild type TSHR expressed in CHO cells (human) (UniProt P16473)
[8] = target: TSHR with Lys250 mutated to Ala (expressed in CHO cells) (human) (UniProt P16473)

Work on “TSH (thyroid stimulating hormone) (ligand)” yielded a % inhibition of TSH stimulation; TSH (2), run at the end of assay [1] of 8%, a Cyclic AMP produced; TSH 3 ng/mL [1] of 93.2 pmol/mL and a Cyclic AMP produced; TSH (2) 3 ng/mL, run at the end of assay [1] of 85.4 pmol/mL. For the same substance, the Mutated/wild type (%) of cyclic AMP produced; TSH 3 ng/mL [1] was 141%, the Cyclic AMP produced; TSH 3 ng/mL [2] was 66.1 pmol/mL and the Cyclic AMP produced; TSH (2) 3 ng/mL, run at the end of assay [2] was 93 pmol/mL. It also gave a % inhibition of TSH stimulation; TSH (2), run at the end of assay [3] of 20%, a Cyclic AMP produced; TSH 3 ng/mL [3] of 59.9 pmol/mL and a Cyclic AMP produced; TSH (2) 3 ng/mL, run at the end of assay [3] of 47.8 pmol/mL. The Mutated/wild type (%) of cyclic AMP produced; TSH 3 ng/mL [3] was 102%, the Cyclic AMP produced; TSH 3 ng/mL [4] was 58.8 pmol/mL and the Cyclic AMP produced; TSH (2) 3 ng/mL, run at the end of assay [4] was 69.6 pmol/mL. The Cyclic AMP produced at 0.01 ng/mL TSH [5] was 7.16 pmol/mL, the Cyclic AMP produced at 0.03 ng/mL TSH [5] was 10 pmol/mL and the Cyclic AMP produced at 0.1 ng/mL TSH [5] was 17.2 pmol/mL. It also gave a Cyclic AMP produced at 0.3 ng/mL TSH [5] of 45.9 pmol/mL, a Cyclic AMP produced at 1 ng/mL TSH [5] of 75.2 pmol/mL and a Cyclic AMP produced at 3 ng/mL TSH [5] of 83.7 pmol/mL. For the same substance, the Mutated/Wild type (%) of cyclic AMP at 0.01 ng/mL TSH [5] was 230%, the Mutated/Wild type (%) of cyclic AMP at 0.03 ng/mL TSH [5] was 226% and the Mutated/Wild type (%) of cyclic AMP at 0.1 ng/mL TSH [5] was 171%. The Mutated/Wild type (%) of cyclic AMP at 0.3 ng/mL TSH [5] was 111%, the Mutated/Wild type (%) of cyclic AMP at 1 ng/mL TSH [5] was 101% and the Mutated/Wild type (%) of cyclic AMP at 3 ng/mL TSH [5] was 88%. For the same substance, the % inhibition of TSH stimulation; TSH (2), run at the end of assay; Exp 1 [6] was 12%, the % inhibition of TSH stimulation; TSH (2), run at the end of assay; Exp 2 [6] was 5% and the Cyclic AMP produced; TSH 3 ng/mL; Exp 1 [6] was 56.6 pmol/mL. For the same substance, the Cyclic AMP produced; TSH 3 ng/mL; Exp 2 [6] was 46.2 pmol/mL, the Cyclic AMP produced; TSH (2) 3 ng/mL, run at the end of assay; Exp 1 [6] was 50.1 pmol/mL and the Cyclic AMP produced; TSH (2) 3 ng/mL, run at the end of assay; Exp 2 [6] was 44.1 pmol/mL. For the same substance, the Mutated/wild type (%) of cyclic AMP produced; TSH 3 ng/mL; Exp 1 [6] was 107%, the Mutated/wild type (%) of cyclic AMP produced; TSH 3 ng/mL; Exp 2 [6] was 53% and the Mutated/wild type (%) of cyclic AMP produced; TSH (2) 3 ng/mL, run at the end of assay; Exp 1 [6] was 65%. It also gave a Mutated/wild type (%) of cyclic AMP produced; TSH (2) 3 ng/mL, run at the end of assay; Exp 2 [6] of 50%, a % inhibition of TSH stimulation; TSH (2), run at the end of assay [7] of 0% and a % inhibition of TSH stimulation; TSH (2), run at the end of assay, no antibody; Experiment 1 [7] of 0%. For the same substance, the % inhibition of TSH stimulation; TSH (2), run at the end of assay, no antibody; Experiment 2 [7] was 12%, the % inhibition of TSH stimulation; TSH (2), run at the end of assay; Exp 1 [7] was 0% and the % inhibition of TSH stimulation; TSH (2), run at the end of assay; Exp 2 [7] was 0%. The Cyclic AMP produced at 0.01 ng/mL TSH [7] was 3.11 pmol/mL, the Cyclic AMP produced at 0.03 ng/mL TSH [7] was 4.43 pmol/mL and the Cyclic AMP produced at 0.1 ng/mL TSH [7] was 10.1 pmol/mL. The Cyclic AMP produced at 0.3 ng/mL TSH [7] was 41.2 pmol/mL, the Cyclic AMP produced at 1 ng/mL TSH [7] was 74.5 pmol/mL and the Cyclic AMP produced at 3 ng/mL TSH [7] was 95.3 pmol/mL. It also gave a Cyclic AMP produced; TSH 3 ng/mL [7] of 85.8 pmol/mL, a Cyclic AMP produced; TSH 3 ng/mL alone; Experiment 1 [7] of 77.9 pmol/mL and a Cyclic AMP produced; TSH 3 ng/mL alone; Experiment 2 [7] of 86.5 pmol/mL. The Cyclic AMP produced; TSH 3 ng/mL; Exp 1 [7] was 52.9 pmol/mL, the Cyclic AMP produced; TSH 3 ng/mL; Exp 2 [7] was 87.2 pmol/mL and the Cyclic AMP produced; TSH (2) 3 ng/mL, run at the end of assay [7] was 97.8 pmol/mL. The Cyclic AMP produced; TSH (2) 3 ng/mL, run at the end of assay; Exp 1 [7] was 77.2 pmol/mL, the Cyclic AMP produced; TSH (2) 3 ng/mL, run at the end of assay; Exp 2 [7] was 88.1 pmol/mL and the Cyclic AMP produced; TSH (2) 3 ng/mL, run at the end of assay; Experiment 1 [7] was 84.5 pmol/mL. It also gave a Cyclic AMP produced; TSH (2) 3 ng/mL, run at the end of assay; Experiment 2 [7] of 75.9 pmol/mL, a % inhibition of TSH stimulation; TSH (2), run at the end of assay, no antibody; Experiment 1 [8] of 10% and a % inhibition of TSH stimulation; TSH (2), run at the end of assay, no antibody; Experiment 2 [8] of 7%. It also gave a Cyclic AMP produced; TSH 3 ng/mL alone; Experiment 1 [8] of 64.7 pmol/mL, a Cyclic AMP produced; TSH 3 ng/mL alone; Experiment 2 [8] of 55 pmol/mL and a Cyclic AMP produced; TSH (2) 3 ng/mL, run at the end of assay; Experiment 1 [8] of 58.3 pmol/mL. For the same substance, the Cyclic AMP produced; TSH (2) 3 ng/mL, run at the end of assay; Experiment 2 [8] was 51.1 pmol/mL, the Mutated/wild type (%) of cyclic AMP produced; TSH 3 ng/mL alone; Experiment 1 [8] was 83% and the Mutated/wild type (%) of cyclic AMP produced; TSH 3 ng/mL alone; Experiment 2 [8] was 64%.

— patent US20110300138A1 (published 2011)
